# Patent US11053304 (CENTIVAX, dated 2021)
# Changes are numbered by the printed parent chain.
# B1: COVID19_P07_B08 (scFv, V domains shown)
# VH: EVQLVESGGGLVQPGGSLRLSCAASGFTFDDYAMHWVRQAPGKGLEWVSVISGSGRNTYYADSVKGRFTISRDNSKNTLYLQMNSLRAEDTAVYYCVTNMDNSRDYFPHYFHDMDVWGQGTLVTVSS
# VL: not shown
# B2: COVID19_P07_D04 (scFv, V domains shown)
# VH: B1 VH with T28R, D30S, Y32H, A33P, S49A, S52T, T58K, Y59F
# VL: DIVMTQSPLSLPVTPGEPASISCRSSQSLLHRNGYNYLDWYLQKPGQSPQLLIYGASTRATGVPDRFSGSGSGTDFTLKISRVEAEDVGVYYCTQSLQTPLTFGGGTKVEIKR
# B3: COVID19_P08_H09 (scFv, V domains shown)
# VH: B1 VH with D30S, M34L, V50G, I51V, G53W, S54N, R56S, N57R, Y59H
# VL: not shown
# B4: COVID19_P07_E03 (scFv, V domains shown)
# VH: B1 VH with T28I, D30S, D31S, Y32F, A33G, V50A, G53D, R56D, N57A, Y59Q
# VL: not shown
# B5: COVID19_P07_F05 (scFv, V domains shown)
# VH: B1 VH with D30S, D31N, V50G, G53S, S54G, R56S, N57G, Y59H
# VL: not shown
# B6: COVID19_P20_F04 (scFv, V domains shown)
# VH: B1 VH with T28A, D30S, D31S, M34L, V50A, R56G, N57D
# VL: B2 VL with L38V, G55L, A56G, T58N, T61S, K79R, T94M, S96A, L97R
# B7: COVID19_P07_G08 (scFv, V domains shown)
# VH: B1 VH with D30S, D31S, V50A, R56G, N57S
# VL: not shown
# B8: COVID19_P08_F08 (scFv, V domains shown)
# VH: B1 VH with D30T, D31S, A33G, V50A, R56G, N57T
# VL: not shown
# B9: COVID19_P07_E10 (scFv, V domains shown)
# VH: B1 VH with D30S, D31S, A33G, S49A, G53Y, S54D, R56S, T58K
# VL: B2 VL with R32S, Y37D, A56G, T58N, R59G, T61S, T94M, S96A
# B10: COVID19_P08_C02 (scFv, V domains shown)
# VH: B1 VH with D30S, D31S, V50G, I51V, G53A, R56G, N57G, T58P
# VL: not shown
# B11: COVID19_P08_A10 (scFv, V domains shown)
# VH: B1 VH with T28I, D30N, A33G, V50A, R56G
# VL: not shown
# B12: COVID19_P08_B05 (scFv, V domains shown)
# VH: B1 VH with D30S, D31S, A33G, V50A, R56G, N57T
# VL: not shown
# B13: COVID19_P08_C03 (scFv, V domains shown)
# VH: B1 VH with D30S, D31S, S49A, G53S, T58K, Y59F, M100L
# VL: not shown
# B14: COVID19_P08_F07 (scFv, V domains shown)
# VH: B1 VH with T28I, D30T, D31N, M34L, V50A, R56G, N57S, Y59H, M100L
# VL: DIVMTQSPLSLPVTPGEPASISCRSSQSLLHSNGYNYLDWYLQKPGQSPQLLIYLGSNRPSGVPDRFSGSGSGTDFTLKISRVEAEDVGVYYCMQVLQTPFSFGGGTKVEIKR
# B15: COVID19_P07_D05 (scFv, V domains shown)
# VH: B1 VH with D30R, D31S, S49A, G53H, S54D, G55A, R56S, T58K
# VL: not shown
# B16: COVID19_P07_H06 (scFv, V domains shown)
# VH: EVQLVESGGGLVQPGGSLRLSCAASGFTFSSYGMHWIRQAPGKGLEWVSAVSASGDRTHYADSVKGRFTISRDNSKNTLYLQMNSLRAEDTAVYYCVTNLDNSRDYFPHYFHDMDVWGQGTLVTVSS
# VL: not shown
# B17: COVID19_P19_D02 (scFv, V domains shown)
# VH: B16 VH with I37V, S49A, V51I, A53G, D56G, R57S, L100M
# VL: not shown
# B18: COVID19_P07_H05 (scFv, V domains shown)
# VH: B1 VH with D30S, D31S, A33G, V37I, S52T, S54D, T58K, Y59F
# VL: not shown
# B19: COVID19_P07_D10 (scFv, V domains shown)
# VH: B1 VH with V50A, I51V, G53T, S54T, R56G, N57S
# VL: not shown
# B20: COVID19_P07_F11 (scFv, V domains shown)
# VH: B16 VH
# VL: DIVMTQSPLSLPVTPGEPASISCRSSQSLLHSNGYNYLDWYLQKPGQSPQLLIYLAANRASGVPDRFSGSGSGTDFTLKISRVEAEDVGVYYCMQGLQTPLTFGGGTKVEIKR
# B21: COVID19_P08_D11 (scFv, V domains shown)
# VH: B1 VH with T28K, D30N, D31T, V50A, G53I, S54T, R56G
# VL: not shown
# B22: COVID19_P20_F08 (scFv, V domains shown)
# VH: B1 VH with D30S, D31S, G53A, R56G, M100L
# VL: DIVMTQSPLSLPVTPGEPASISCRSSRSLLHTNGLNYIDWYLQKPGQSPQLLIYLGSNRASGVPDRFSGSGSGTDFTLKISRVEAEDVGVYYCTQALQTPISFGGGTKVEIKR
# B23: COVID19_P07_H03 (scFv, V domains shown)
# VH: B1 VH with D30S, D31S, V50A, G53R, R56D, N57S, T58A
# VL: not shown
# B24: COVID19_P19_H03 (scFv, V domains shown)
# VH: B1 VH with D30S, D31S, A33G, S49A, G53Y, S54D, R56S, T58K
# VL: not shown
# B25: COVID19_P07_D08 (scFv, V domains shown)
# VH: EVQLVESGGGLVQPGGSLRLSCAASGFTFRNYAMHWVRQAPGKGLEWVSAIGTGGDTYYADSVKGRFTISRDNSKNTLYLQMNSLRAEDTAVYYCVTNMDNSRDYFPHYFHDMDVWGQGTLVTVSS
# VL: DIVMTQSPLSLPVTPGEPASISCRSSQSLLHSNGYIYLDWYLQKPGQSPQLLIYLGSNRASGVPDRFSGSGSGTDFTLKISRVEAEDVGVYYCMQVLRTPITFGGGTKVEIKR
# B26: COVID19_P07_A12 (scFv, V domains shown)
# VH: B25 VH with R30S, T53A, D56G
# VL: B22 VL with R27Q, H31Y, T32S, N33D, L35D, N36T, I38L, T94M, I101L, S102T
# B27: COVID19_P08_B11 (scFv, V domains shown)
# VH: B16 VH
# VL: DIVMTQSPLSLPVTPGEPASISCRSSQSLLHSNGYNRLAWYLQKPGQSPQLLIYLGSYRASGVPDRFSGSGSGTDFTLKISRVEAEDVGVYYCMQALQTPSFGGGTKVEIKR
# B28: COVID19_P20_F05 (scFv, V domains shown)
# VH: B16 VH with S31T, G33A, I37V, A50G, A53W, S54N, D56S, L100M
# VL: not shown
# B29: COVID19_P20_B01 (scFv, V domains shown)
# VH: B1 VH with D30S, D31S, S49A, G53S, T58K, Y59F
# VL: not shown
# Molecular target: MERS Receptor Binding Domain (RBD) protein (MERS coronavirus, UniProt K9N5Q8 367-606)
# Experiment: SPR, scFv captured via anti-V5, RBD as analyte
row,Binder,binding result
1,B1,no binding (tested: up to 300 nM)
2,B2,no binding (tested: up to 300 nM)
3,B3,no binding (tested: up to 300 nM)
4,B4,no binding (tested: up to 300 nM)
5,B5,no binding (tested: up to 300 nM)
6,B6,no binding (tested: up to 300 nM)
7,B7,no binding (tested: up to 300 nM)
8,B8,no binding (tested: up to 300 nM)
9,B9,no binding (tested: up to 300 nM)
10,B10,no binding (tested: up to 300 nM)
11,B11,no binding (tested: up to 300 nM)
12,B12,no binding (tested: up to 300 nM)
13,B13,no binding (tested: up to 300 nM)
14,B14,no binding (tested: up to 300 nM)
15,B15,no binding (tested: up to 300 nM)
16,B16,no binding (tested: up to 300 nM)
17,B17,no binding (tested: up to 300 nM)
18,B18,no binding (tested: up to 300 nM)
19,B19,no binding (tested: up to 300 nM)
20,B20,no binding (tested: up to 300 nM)
21,B21,no binding (tested: up to 300 nM)
22,B22,no binding (tested: up to 300 nM)
23,B23,no binding (tested: up to 300 nM)
24,B24,no binding (tested: up to 300 nM)
25,B25,no binding (tested: up to 300 nM)
26,B26,no binding (tested: up to 300 nM)
27,B27,no binding (tested: up to 300 nM)
28,B28,no binding (tested: up to 300 nM)
29,B29,no binding (tested: up to 300 nM)

# Molecular target: T1, SARS-CoV-2 Receptor Binding Domain (RBD) protein (SARS-CoV-2, UniProt P0DTC2 319-541)
# Experiment: SPR, scFv captured via anti-V5, RBD as analyte
row,Binder,Kd [nM]
1,B13,< 50
2,B14,< 50
3,B20,< 50
4,B22,< 50
5,B27,< 50

# Molecular target: SARS-CoV-1 Receptor Binding Domain (RBD) protein (SARS-CoV-1, UniProt P59594 306-527)
# Experiment: SPR, scFv captured via anti-V5, RBD as analyte
row,Binder,binding result
1,B1,no binding (tested: up to 300 nM)
2,B2,no binding (tested: up to 300 nM)
3,B3,no binding (tested: up to 300 nM)
4,B4,no binding (tested: up to 300 nM)
5,B5,no binding (tested: up to 300 nM)
6,B6,no binding (tested: up to 300 nM)
7,B7,no binding (tested: up to 300 nM)
8,B8,no binding (tested: up to 300 nM)
9,B9,no binding (tested: up to 300 nM)
10,B10,no binding (tested: up to 300 nM)
11,B11,no binding (tested: up to 300 nM)
12,B12,no binding (tested: up to 300 nM)
13,B13,no binding (tested: up to 300 nM)
14,B14,no binding (tested: up to 300 nM)
15,B15,no binding (tested: up to 300 nM)
16,B16,no binding (tested: up to 300 nM)
17,B17,no binding (tested: up to 300 nM)
18,B18,no binding (tested: up to 300 nM)
19,B19,no binding (tested: up to 300 nM)
20,B20,no binding (tested: up to 300 nM)
21,B21,no binding (tested: up to 300 nM)
22,B22,no binding (tested: up to 300 nM)
23,B23,no binding (tested: up to 300 nM)
24,B24,no binding (tested: up to 300 nM)
25,B25,no binding (tested: up to 300 nM)
26,B26,no binding (tested: up to 300 nM)
27,B27,no binding (tested: up to 300 nM)
28,B28,no binding (tested: up to 300 nM)
29,B29,no binding (tested: up to 300 nM)

# Molecular target: T1, SARS-CoV-2 Receptor Binding Domain …
# Experiment: SPR, scFv captured via anti-V5, RBD as analyte
# Remark: another data set of the same source
Binder,Kd [nM],koff [s⁻¹],kon [M⁻¹ s⁻¹]
B2,2.3,5.7e-05,24400
B3,1.1,5.7e-05,51000
B25,1.7,5.7e-05,34100
